Target: SARS-CoV-2 Spike S2 protein fused to the pilot peptide CilPP, on S-EVs (SARS-CoV-2)
Test: non-reducing SDS-PAGE and Western blot

SARS-CoV-2 Spike S2 protein fused to the pilot peptide CilPP, on S-EVs (domain or fragment)
stoichiometry N: 3

— article doi:10.1101/2020.10.28.357137
